Assay results taken from the nanobody polyreactivity screen of Harvey et al. (2022).

Assay: yeast display, Sf9 membrane polyspecificity reagent, FACS + sequencing; frameworks hold sequencing errors
Method in brief: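 Polyreactivity labels are assigned by the sorting gate from which each nanobody was recovered. The gates were low and high (top ~1%), set on anti-HA fluorescence for expression and streptavidin fluorescence for reagent binding. Before sorting, galactose-induced (36–48 hours) yeast display cells were stained for 1 hour at 4 °C with 10% biotinylated, detergent-solubilized Sf9 membrane reagent.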

Row | Sequence | polyreactivity (PSR sort gate)
1 | QVQLVESGGGLVQAGGSLRLSCAASGRTFVYYAMVWSRQAPGKEREFVAAISRSGGRTSYADSVKGRFTISRDNAKNTVYLQMNSLKPEDTAVYYCAAENRTQPTSREYYWGQGNQVTVSS | high polyreactivity
2 | QVQLVESGGGLVQAGGSLRLSCAASGFIFSPYAMGWYRQAPGKERELVAAINGGGRTYYADSVKGRFTISRDNAKNTVYLQMNSLKPEDTAVYYCAVDPISQGHMDYWGQGTQVTVSS | low polyreactivity
3 | QVQLVESGGGLVQAGGSLRLSCAASGSTFGGYTMGWYRQAPGKERELVAAISRRGGSTYYADSVKGRFTISRDNAKNTVYLQMNSLKPEDTAVYYCAALYVYRPRTPYGYWGQGTQVTVSS | high polyreactivity
4 | QVQLVESGGGIVQAGGSLRLSCAATGFTFVYYAMGWYRQEPGKERELVAAISSRGGSTNYADSVKGRFTISRDNAKKTVYLQMNSLKPEDTAVYYCAARANTKKPYYYWGQGTQVTVSS | high polyreactivity
5 | QVQLVESGGGLVQAGGSLRLSCAASGRIFAWNAMGCYRQAPGKERELVAGISGSGGSTYYADSVKGRFTISRDNAKNTVYFQMNSLKPEDTAVYYCAARRRYDGWGGYWGQGTQVTVSS | high polyreactivity
6 | QVQLVESGGGLVQAGGSLRLSCAASGLTLSGYAMGWYRQAPGKERELVAAISSTGGSTYYADSVKGRFTISRDNAKNTVYLQMNSLKPEDTAVYYCAKGFSPTRVRLRYPRYDTYNHWGQGTQVTVSS | high polyreactivity
7 | QVQLVESGGGLVQAGGSLRLSCAASGLTFVDNALGWYRQAPGKDRELVAAISYNGGTTYYADSVKGRFTISRDNAKNTVYLQIISLKPEDTAVFYCAADISVGRYGDMDYWGQGTQVTVSS | low polyreactivity
8 | QVQLVDSGGGLVQAGGSLRLSCAASGRIFQQNAMGWYRQAPGKERELVAAISWRGTSTYYADSVKGRFTISRDNAKNTVYLQMNSLKPEDTAVYYCAAQGYAYTLVAKVYRWYEYAYWGQGTQVTVSS | high polyreactivity
9 | QVQLVESGGGLVQAGGSLRLSCAASGLIFKDYAMGWYRQAPGKERELVAAISSSGGSTYYADSVKGRFTISRDNAKNTVYLQMNSLKPEDTAVYYCAARSFRYYSDYGYWGQGTQVTVSS | high polyreactivity
10 | QVQLVESGRGLVQAGGSLRLSCAASGRTFHYNVMGWYRQAPGKERELVAAITNTGGSTYYADSVKGRFTISRDNAKNTVYLQMNSLKPEDTAVYYCAAVIWGRRYGAYPYEYWGQGTQVTVSS | low polyreactivity
11 | QVQLVESGGGLVKAGGSLRLSCAASGFIYKFYAMGWYRQAPRKERELVAAINYSGGSTYYADSVKGRFTISRDNAKNTVYLKMNSLKPEDTAVFYCNALYTYGWYSDDYWGQGTQVTVSS | high polyreactivity
12 | QVQLVESGGGLVQAGGSLRLSCAAYGRILRYYAMGWYRQAPGKERELVASITSGGSTYYADSVKGRFTISRDNAKNTVYLQMNSLKPEDTAVYYCAARNIYRVDLSYYAYDYWGQGTQVTVSS | high polyreactivity
13 | QVQLVESGGGLVQAGGSLRLSCAASGIIFGFNTMGWYRQAPGKERELVAVITWSGGSTYYADSVKGRFTISRVFAKNTVYLQMNCLNPDDTAVYYCATVRAVEYNYWGQGTQVTVSS | low polyreactivity
14 | QVQIVESGGGLFQAGGSLRISCAASGFTFPNYAMGWYRQAPGKERELVAAITSGGGRSNYADCVKGRFTISRDNAKKTFYLEMNSLKPEDSAVYYCAKTRVRGSEFGYWGQGTQVTVSS | low polyreactivity
15 | QVQLVESGGGLVQAGGRLRLSCSASGRIFATYAMGWYRQAPGKERELVASISRRGGSTYYADSVKGRFTISRDNAKKTVYLQMNSLKPEDTAVYYCAKLFDTERGYNYWGQGTQVTVSS | high polyreactivity
16 | QDQLVESGGGLVQAGGSLRLSCAASGTTFYRYAMGWYRQAPGKERELVAAISSSGGYTYYADSVKGRFTISRDIAKNTVYLQMNSLKPEDTAVYYCNAAYRVRRFDYWGQGTQVTVSS | low polyreactivity
17 | QVQLVESGGGLVQEGGSLRLSCAASGSIFAKYAMGWYSQAPGKEREFVAGISYSGNTYYADSVKGRFTISRDNAKNTVYLQMNSLKPEDTAVYYCAADGYLQTRRFDYWGQGTQVTVSS | high polyreactivity
18 | QVQLVESGGGLGHAGGSLRLSCAASGFTYTAYAMGWYRQAPGKERELVPSISKSDGSTYYADSVKGRFTISRDNAKNTVYLQMKSVKPEDTAVYYCATGRISRDFHRVQDLGYDYWGQGTQVNVSS | low polyreactivity
19 | QVQLVESGGGLVQAGGSLRLSCAAYGFTFAFYALGRYRQSPGKERELVAAITGSGGSTYYADSVKGRFTISRDNSKNTVYLQMNSLKPEDTAVYYCNTYTYYSRMDYWGQGTQVTVSS | high polyreactivity
20 | QVQLVESGGGLVQAGGSLRLSCAASGRILTFNAMGGYRQAPVKERELVASISNGGSTIYADSVKGRFSISRDNAKNTVYLQMNSLKPEDTAVYYCAALNASQGTVTFYIFDYWGQGTQVTVSS | low polyreactivity
21 | QVQLVESGGGLVQAGGSLRLSCAASGSTFGPYTMGWYRQAPGKERELVAAISYSGASTYYADSVKGRFTISRDNAKNTVYLQMNSLKPEDTAVYYCNTVYRYTRARYPYDYWGQGTQVTVSS | high polyreactivity
22 | QVQLVESGGGLVQAGGSLRLSCAASGLTFIFYAMGWYRPAPGKERELVAAISVSGGSTYYADSVKGRFTISRDNAKNTVYLQMNSLKPEDTAVYYCAADREHFATYGPHMDYWGQGTQVTVSS | low polyreactivity

Row | Sequence | polyreactivity (PSR sort gate)
23 | QVKLVESGGGLVQAGGSLRISCAASVSIFPVYAMGWYRQAPGKERELVAAISSRGGRTYYADSVKGLFTISRDNAKNTVYLQMNSLKPEDNAVYYFATDYSTYYRLPSQYDYWGQGTQVTVSS | low polyreactivity
24 | QVQLVESGGGLVQAGGSLRLSCAASGRIFWRNAMGWYRQAPGKERELVAAISSGGSTYYADSVKGRFTISRDNAKNTVYFQMNSLKPEDTAVYYCAARSSWRGVRYDHFERDYWGQGTQVTVSS | high polyreactivity
25 | QVHLVESGGGLVQAGGSLRLSCAASGFTLYGNVMGWYRPAPGKERELVAAISWSTDSTYYADSLKGRFTISRDNAKNTVYLQMNSLKPEDTAIYYCAADYSHLPIAWYYYWGQGTQVTVSS | low polyreactivity
26 | QVQLVESGGGLVQAGGSLRLSCAASGFIFQYYAMGWYRQAPGKERELVAAITSGGTTYYADSVKGRFTISRDNAKNTVYLQMNSLKPEDTAVYYCAAVFVNFYARFDYWGQGTQVTVSS | low polyreactivity
27 | QVQLEESGGGLVQAGGSLRLSCAASGRTFYSSAMGWYRQPPGKERQLVAAITISGGRTFYADSVKGRSTISRDNAKNTVYLQMNSLKPEDTAVYYCATDTYEPFHFEDDYWGQGTQVTVST | low polyreactivity
28 | QVQLVESGGGLVQAGGSLRLSCAASGSIFGRNAMGWYRQAPGKERELVAAITGSTYYADSVKGRFTISRDNAKNTVYLQMNSLKPEDTAVYYCNADYDVGWTYDTEYNYWGQGTQVTVSS | low polyreactivity
29 | QVQLVESGGGLVQAGGSLRLSCAASGSIFTLYAMGWYRQAPGKETELVAVISSSGGRTYYADSVKGRFTISRDNAKNTVYLQMNSLKPEDTAVYYGAARGYGATYDYWGQGTQVTVSS | high polyreactivity
30 | QVQLVESGGGLVQAGGSLRISCAASGSIVYPYAMGWYRQAPGKERELVAAISYSGGSTYYADSVKGSFTISRDNAKNTVYLQMNSLKPEDTAVYYCNVYAGQYGMNYWGQGTQVTVSS | high polyreactivity
31 | QVQLVESGGGLVQAGGSLRLSCAASGRTFGYNAMGWYRQAPGKERELVASISWSGGTTYYADSVKGRFTISRDNAKNTVYLQMNSLKPEDTAVYYCAADRQSYVTRLYRSYWGNYWGQGTQVTVSS | high polyreactivity
32 | QVQLVESGGGLVQAGGSLRLSCAPSGRIFSYNTVMGWYRQAPGKERELVAAITYSSASTYYADSVKGRFTISRDNAKNTVYLQMNSLKPEDTAVYYCAAVRYERGLWSDYWGQGTQVTVSS | high polyreactivity
33 | QVQLVESGGGLVQAGGSLRLSCAASGLYAMGWYRQAPGKERELVADINSSGGSITNYADSVKGRFTISRDNAKNTVYLQMNSLKPEDTAVYYCAAPALGNYFYGYDYWGQGTQVTVSS | low polyreactivity
34 | QVQLVESGGGLVQSGVSLRLSCAASGIIFFSNTMGWYRQAPGKEREFVAAITWSTGNTYYADSVKGRFTISRDNAKNTVYLQMNSLKPEDTAVYYCYAEFLVITWYGGVEFDYWGQGTQVTVSS | low polyreactivity
35 | QVQLVESGGGLVQAGGSLRLSCAASGSIFKTNAMGWYRQAPGKERELVAGISNGGSTNYADSVKGRFTISRDNAKNTVYFQMNSLKPEDTAVYYCAAEYEYLWSQYLTDYGYDSWGQGTQVTVSS | low polyreactivity
36 | QVQLVESGGGLVQAGGSLRLSCAASGRIFDRNAMGWYRQARGKARELVARIDPGDDTNYADSVKGRFTISRDNAKNKVYLQMNSLQPEDTAVYYCATDPDYVLYRTAYYEYDYWGQGTQVTVSS | low polyreactivity
37 | QVQLVESGGGLVQAGGSLRLSCAASGITFYPNGMGWYRQAPGKEREFVAAISSSGGSTYYADSVKGRFTISRDNAKNSVYLQMNSLKPEDTAVYYCAAQYYAMSYYGYGYWGQGTQVTVSS | low polyreactivity
38 | QVQLVESGGGLVQAGGSLRLSCAASGSIFYYYAMGWYRQAPGKERELVAAITYSGGSTHYADSVKGRFTISRDNAKNTVYLQMNSLKPDDTAVFYCAVYYRSHSGSRIYYWGQGTQVTVSS | high polyreactivity
39 | QVQLVESGGGLVQAGGSLRLSCAASGITFVFYTMGWYRQAPGKERELVAAISRSGASTYYADSVKGRFTISRDNAKNTVYLQMNSLKPEDTAVYYCAADRGYRFRMDYWGQGTQVTVSS | high polyreactivity
40 | QVQLVESGGGLDQAGGSLRLICAASGLTFPYYARGWSIQAPGKEMEVVAGITDDGGDTYYADSVKGRLTISRDYAKNTVYLQMNSLKPEDTAVYFCAADGWFQGWFGYGYWGQGTQVTVSS | high polyreactivity
41 | QVQLVDSGGGLVQAGGSLRLSCAASGFTFSAYAMGWYRQAPGKERELVAAISWSGSRTYYADSVKGRFTISRDNAKNTVYLQMNSLKPEDTAVYYCAKEPYDTFGFYEYDYWGQGTQVTVSS | low polyreactivity
42 | QVQHVDSGGGIVQAGGSLRLSCAPSGRTILRYTMGWYRHAPGKERELVASITRGGSSYYADSVKGRFTISRDNAKNTVYLQMNSLKPEDTAVYYCAARRYYGVYYAFYYWGQGTQVTVSS | high polyreactivity
43 | KVQLVESGGGLVQAGGSLRLSCAASGNIFIPYAMGWYRQAPGKEREFVAVISTRGGSTYYADSLKGRFTISRDNAKNTVYLQMNSLKPEYTAVYYCAAGALGPRIKGWWFRRSFFYWGQGTQVTVSS | high polyreactivity
